6 molecules from article PMC13181761, “New Analogs of the Compstatin Family of Clinical Complement Inhibitors with Low Picomolar Target Affinity” (Journal of Medicinal Chemistry, 2026) can be followed below.

Assay [1] has as its target T1, human C3b (human, UniProt P01024 749-1663).
T1 construct: Complement C3 beta chain, human; cut product of the C3 precursor; C3b alpha chain (C3 alpha chain after release of C3a), human; Two-chain fragment of C3; amine-coupled to the chip in SPR, free in the cryo-EM sample; also called hC3b; plasma-purified C3b; source: bought: Complement Technology (plasma-purified)
The assay can be described thus: SPR; Biacore T200; human C3b amine-coupled; multicycle kinetics, serial 2-fold dilutions of peptide, 120 s injection, 180 s dissociation, regeneration 1 M NaCl; 25 °C, HBST pH 7.4; Langmuir 1:1 fit, KD = kd/ka; mean of 3 experiments. The settings on record: both partners purified. In general terms: Surface plasmon resonance follows binding to a sensor surface in real time, without labels.

For assay [2], the target named is T1, human C3b. The assay can be described thus: SPR; Biacore T200; human C3b amine-coupled; single-cycle kinetics, 5 increasing concentrations (0.5-40 nM), final dissociation 100-240 min; 25 °C, HBST pH 7.4; global Langmuir 1:1 fit; mean of 3 experiments. The settings on record: both partners purified.

Bridges are numbered along the chain shown (N, C = ends). Where no end group is shown, it is not given here. [ ]: non-standard residue; d: D form. Trp(1-Me) = Cn1cc(C[C@H](N)C(=O)O)c2ccccc21; Nva(3-Et) = CCC(CC)[C@H](N)C(=O)O; Asu = N[C@@H](CCCCCC(=O)O)C(=O)O; NMeI = CC[C@H](C)[C@H](NC)C(=O)O; Sar = CNCC(=O)O

By Kd is commonly meant the concentration at which binding is half-saturated. As usually defined, the koff is the rate constant with which the complex falls apart. A word on the kon: it is the second-order rate constant of association. Lower therefore signals slow association.

For Ac-ICVWQDW[dA]AHRCT (disulfide 2-12 (inferred)) [Cp01 Gly8D-Ala analog], in the assay with human C3b [1], the Kd is > 16000 nM.

Regarding Ac-ICVWQ[Asu]WGAHRCT (disulfide 2-12 (inferred)) [Cp01 Asp6Asu analog], in the assay with human C3b [1], the Kd amounted to 2080 nM, the koff came out at 0.23 s⁻¹ and the kon came out at 120000 M⁻¹ s⁻¹.

B1: Cp01 W7Bta analog (peptide)
chain: ICVWQDXGAHRCT
modifications: (3-benzothienyl)alanine (Bta) at position 7; acetyl at position 0; cyclic (cyclized by H2O2)
For B1, the Kd with human C3b [1] is > 16000 nM.

Consider [dY]IC[Nva(3-Et)][Trp(1-Me)]QDW[Sar]AHRC[NMeI] (disulfide 3-13 (inferred)) [Cp40 Dea3 analog], for which, in the assay with human C3b [2], binding was put at a Kd of 13.6 nM, the dissociation rate constant (koff) was 0.006 s⁻¹ and the on-rate constant (kon) stood at 430000 M⁻¹ s⁻¹.

B2: Cp01 Val3Tbg analog (peptide)
chain: ICXWQDWGAHRCT
modifications: α-tert-butyl-glycine (Tbg) at position 3; acetyl at position 0; cyclic (cyclized by H2O2)
The molecule B2 came in with a Kd with human C3b [1] of 103 nM. That is a sub-micromolar value.

B3: Cp01 Val3Nva analog (peptide)
chain: ICXWQDWGAHRCT
modifications: not fully specified; norvaline (Nva) at position 3; acetyl at position 0; cyclic (cyclized by H2O2)
In the assay with human C3b [1], B3 returned a Kd of 1660 nM. This Kd is about 16-fold higher than that of the molecule before.
